According to IntAct's records for PubMed 25888478:

B1: Protein interacting with Hsp90 1 (Saccharomyces cerevisiae), P38768 (parent)
chain: MADFLLRPIKQRHRNEDKYVSVDAADGSVSKIEPIADFVIKTKLLSANGPEKLQDGRKVFINVCHSPLVPKPEVDFNARIVFPLIIQNEWEIPIITSCYRMDHDKKGQECYVWDCCINSDCSRWICDDIQLREILVEWCLESCEIRDSVVLCRDRIAFPKMKKKGAELPALEVLNDELHQDYKAKMHKIIEEEAGDPMSILRGRNDDGDDNNDPDDGTLPPLFPIENKISGAKIEEIDKNEIAHRNLKQAPAPAPAPHEQQEDVPEYEVKMKRFKGAAYKLRILIENKAPNSKPDRFSPSYNFAENILYINGKLSIPLPRDIVVNAADIKIFHIRKERTLYIYI
partner: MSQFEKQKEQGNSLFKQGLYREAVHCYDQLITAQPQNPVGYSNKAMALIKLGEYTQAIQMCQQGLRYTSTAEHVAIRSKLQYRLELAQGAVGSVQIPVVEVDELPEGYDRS

Variants of: B1
Settings: with tah1_yeast TAH1, P25638

Variant | effect of a mutation on the interaction
N306S | disrupting interaction
